Data as given in article PMC6385590 (European journal of immunology, 2015).

Biological target: T1, interferon regulatory factor 8 (IRF8) (human (endogenous in CAL-1 and primary …, UniProt Q02556 1-426))
T1 sequence (looked up): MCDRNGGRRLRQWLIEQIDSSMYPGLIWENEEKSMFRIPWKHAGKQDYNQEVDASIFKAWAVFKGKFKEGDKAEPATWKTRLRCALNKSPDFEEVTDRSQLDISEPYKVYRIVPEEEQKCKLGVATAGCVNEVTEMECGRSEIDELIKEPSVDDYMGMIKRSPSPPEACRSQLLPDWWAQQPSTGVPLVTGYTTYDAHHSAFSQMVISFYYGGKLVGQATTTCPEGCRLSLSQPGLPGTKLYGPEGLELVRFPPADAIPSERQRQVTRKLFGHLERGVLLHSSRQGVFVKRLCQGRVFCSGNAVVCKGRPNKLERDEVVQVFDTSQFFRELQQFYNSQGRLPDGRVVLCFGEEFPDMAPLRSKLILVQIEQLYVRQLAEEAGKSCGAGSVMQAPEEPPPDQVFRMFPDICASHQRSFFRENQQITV
Assay: proximity ligation

B1: interferon regulatory factor 5 (IRF5) (natural protein, UniProt Q13568 1-498, looked up)
chain: MNQSIPVAPTPPRRVRLKPWLVAQVNSCQYPGLQWVNGEKKLFCIPWRHATRHGPSQDGDNTIFKAWAKETGKYTEGVDEADPAKWKANLRCALNKSRDFRLIYDGPRDMPPQPYKIYEVCSNGPAPTDSQPPEDYSFGAGEEEEEEEELQRMLPSLSLTEDVKWPPTLQPPTLRPPTLQPPTLQPPVVLGPPAPDPSPLAPPPGNPAGFRELLSEVLEPGPLPASLPPAGEQLLPDLLISPHMLPLTDLEIKFQYRGRPPRALTISNPHGCRLFYSQLEATQEQVELFGPISLEQVRFPSPEDIPSDKQRFYTNQLLDVLDRGLILQLQGQDLYAIRLCQCKVFWSGPCASAHDSCPNPIQREVKTKLFSLEHFLNELILFQKGQTNTPPPFEIFFCFGEEWPDRKPREKKLITVQVVPVAARLLLEMFSGELSWSADSIRLQISNPDLKDRMVEQFKELHHIWQSQQRLQPVAQAPPGAGLGVGQGPWPMHPAGMQ
**Q.** How did the “fold of nuclear PLA colocalization over unstimulated cells (after 1 h CpG ODN)” value turn out when B1 was run?
**A.** Its value is over 3 fold.
